# From PMC11868986, “Identification of Schizophrenia‐Risk Regulatory Variant rs1399178 in the Non‐coding Region With Its Impact on NRF1 Binding”
# T1: NRF1 DD-DBD (Homo sapiens, UniProt Q16656 49-288)
# T1 sequence: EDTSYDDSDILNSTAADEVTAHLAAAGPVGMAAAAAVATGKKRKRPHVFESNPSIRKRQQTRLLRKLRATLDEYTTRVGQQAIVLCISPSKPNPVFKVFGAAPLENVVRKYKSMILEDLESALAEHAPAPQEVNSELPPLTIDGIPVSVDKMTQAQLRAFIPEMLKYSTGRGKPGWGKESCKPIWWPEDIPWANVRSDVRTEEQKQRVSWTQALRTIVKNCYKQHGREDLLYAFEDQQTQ
# Target: T1, NRF1 DD-DBD
# Experiment: ITC; two-site fit; DNA 500 uM into 50 uM protein; Kd only in Fig 4B; ITC: 50 mM Tris pH 8.0, 100 mM NaCl, 1 mM EDTA, 1 mM DTT, 25 C; EMSA: Thermo 20148 kit, SH-SY5Y nuclear extract
# Details: protein: recombinant; cleaved with HRV 3C when needed; chain copies: 2
binder,measurement,value
RS(WT) / RS(G) (dsDNA) DNA 1: GGCGCAGCCGCAGC DNA 2: GCTGCGGCTGCGCC,binding result,binds
